Results as given in PMC12781872.

How the values were obtained:
Test in all cases: FRET
[1] = target: RNAP core beta' D359AzF Dylight488;sigmaE rpoC:D359 (Mycobacterium tuberculosis;Mycobacterium tuberculosis) (UniProt P9WGZ1+P9WGZ1+P9WGY9+P9WGY7+P9WGY5+P9WGG7)
[2] = target: RNAP core beta' D359AzF Dylight488;sigmaF rpoC:D359 (Mycobacterium tuberculosis;Mycobacterium tuberculosis) (UniProt P9WGZ1+P9WGZ1+P9WGY9+P9WGY7+P9WGY5+P9WGI3)
[3] = target: RNAP core beta' D359AzF Dylight488;sigmaA rpoC:D359 (Mycobacterium tuberculosis;Mycobacterium tuberculosis) (UniProt P9WGZ1+P9WGZ1+P9WGY9+P9WGY7+P9WGY5+P9WGI1)

Sequence: GTGGCCCTTGTGGGAGCGTCGGCCATAGCGGCCTCCCGGTCGGCTTGCGCTG / CAGCGCAAGCCGACCGGGAGGCCGCTATGGCCGACGCTCCCACAAGGGCCAC / UUUUUUUCCGCUAUG
- Kd [1]: 0.335 µM
- Kd [2]: 0.0211 µM
- Kd [3]: 0.162 µM
